Experimental data: patent US20110311517A1, “Antibodies and methods for treating estrogen receptor-associated diseases” (SHENOGEN PHARMA GROUP, LTD., priority 2009, published 2011)
Marks after values point to notes of the source that are not given here.

How the values were obtained:
ERα36 = target: T1, ERα36 (Homo sapiens, UniProt P03372); experiment: ELISA of re-natured ScFv binding to ERα36
T1 construct: made in house; host or cells: chemical synthesis (no expression host)
T1 sequence (P03372 284-310 isoform P03372-4 limits assumed): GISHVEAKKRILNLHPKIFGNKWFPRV
Description: Streptavidin-coated 96-well plates were washed twice with PBS. Biotinylated ERα36 (final concentration of 20 μg/ml) was added into each testing well. The plates were incubated for 2 h at room temperature and washed three times with PBST. Re-natured ScFv samples (100 μl, S14A1r1, S24A2r2, S33A2r1, S41A3r3, S53A1r1, S66A1r1 and S72A2r1) were added into the testing wells respectively. Each ScFv was diluted five times in five gradients, and two parallel wells were loaded with each ScFv at each gradient. The plates were incubated at 37° C. for 1 h. The plates were washed three times with PBST, followed by addition of 100 μl anti-His-6 mouse monoclonal antibody (1:2000 dilution) per well and 1 h incubation at 37° C. The plates were washed three times with PBST, followed by addition of 100 μl goat anti-mouse-HRP (1:2500 dilution) per well and 1 h incubation at 37° C. The plates were washed six times with PBST, followed by addition of 100 μl OPD to develop under the protection from light. The reactions were terminated by adding 50 μl 2M H2SO4 to each well, and data were collected by microplate reader at 490 nm.
One positive control and three negative controls were performed in parallel. The positive control used rabbit anti-ER multi-clonal antibody serum in replacement of the ScFv re-natured sample and goat-anti-rabbit-HRP in replacement of goat-anti-mouse HRP.

[1] = system: Human breast tumor BCAP-37; experiment: Tumor growth inhibition in BCAP-37 tumor-bearing nude mice; type: in vivo, BALB/c-nu nude mice
From the text: 49 female BALB/c-nu nude mice (provided by department of laboratory animal science, Peking University Health Science Center) were used in the studies.
(§1) The tested animals were grouped into 7 groups with 7 nude mice in each group. The seven groups are the negative control group treated with human IgG antibody (purchased from Beijing Biosynthesis Biotechnology Co. Ltd.), the positive control group treated with herceptin (provided by Beijing Shenogen pharma group), the multi-clonal antibody test group treated with rabbit anti-ERα36 multi-clonal antibody (provided by Wang, Zhao-Yi group, Creighton University), and the monoclonal antibody test groups treated with human anti-ERα36 monoclonal ScFv1, ScFv3, ScFv4 and ScFv7 respectively.
(§2) The test groups were administered with the same dose of rabbit anti-ERα36 multi-clonal antibody, human anti-ERα36 monoclonal ScFv1, ScFv3, ScFv4 and ScFv7 respectively (5 mg/kg, 100 μg/dose). The positive control group was administered with 5 mg/kg herceptin (100 μg/dose,), and the negative control group was administered with 5 mg/kg IgG antibody (100 μg/dose).
(§3) Human breast tumor BCAP-37 (estrogen receptor positive, provided by department of pharmacology, Institute of Materia Medica, Chinese Academy of Medical Sciences) was implanted subcutaneously into the armpit of the right forelimb of each tested nude mouse. Diethylstilbestrol was administered by gavage with the dose of 7 μg/day for 9 consecutive days after the implantation. On day 10, the mice were grouped into 7 groups and administered with the corresponding drug via intravenous injection, at a dosing interval of 3-4 days, for 6 consecutive doses. Every 3-4 days, the tumor-bearing mice were weighed and their tumor sizes were measured. Parameters were calculated using the following equations:
Volume of Tumor in animals of each group (VT): Vt=½×a×b^2, (Equation 1),
wherein a and b represent the length and width of the tumor, respectively;
wherein V0 is the volume of tumor before drug administration at the time of grouping, Vt is the volume of tumor at each measurement; the calculation method of V0 is the same as that of Vt;
wherein TRTV is the arithmetic mean of RTV of the test groups, and CRTV is the arithmetic mean of RTV of the negative control group.
The tumor bearing mice in each group were terminated after 21 days of observations and drug administrations. The tumors were then excised from the animals, photographed and weighed on 1/10000 analytical balance. The average tumor weights and tumor growth inhibition rates were calculated:
All experimental data were shown in mean±standard deviation. Groups were compared using statistical t test.

[2] = Body weight and mortality of tumor-bearing nude mice during drug administration; type: in vivo, BALB/c-nu nude mice; conditions: mean ± SD
From the text: as §1, §2
as §3, with “equations: […]” for “equations:”

implanted tumors = experiment: Comparison of anti-tumor activity of ScFv-7 with tamoxifen on tumor-bearing nude mice; type: in vivo, BALB/c-nu female nude mice; conditions: after 18 days of drug administration
Description: BALB/c-nu female nude mice were divided into 3 groups, with 7 mice in each group.
Human anti-ERα36 ScFv-7 was administered at the dose of 0.1 mg/20 g body weight/day. The positive control tamoxifen was administered at the dose of 0.33 mg/20 g body weight/day. The negative control group was administered with human IgG.
The tumor-bearing nude mice were weighed, and the volumes of the implanted tumors were measured every 3-4 days. The relative tumor volumes and tumor growth inhibition rates were calculated using Equation 2 and Equation 4 respectively. Animals received drug administration for 18 days and were terminated 24 h later. The tumors were excised from the animals and weighed. The average tumor weights and tumor growth inhibitions were calculated using Equation 4.

[3] = ScFv concentration 200.00 μg/ml
[4] = BCAP-37 nude mice, 5 mg/kg i.v. every 3-4 days, 6 doses, mean ± SD
[5] = BCAP-37 nude mice, 5 mg/kg i.v. every 3-4 days, Vt relative to V0, mean ± SD
[6] = 5 mg/kg i.v. every 3-4 days, 6 doses

B1: ScFv7: fully human anti-ERα36 single chain antibody, SEQ ID NO: 15 (protein)
scFv: QSVLTQPPSVSAAPGQKVTISCSGSSSNIGNNYVSWYQQLPGTAPKLLIYDNNKRPSGIPDRFSGSKSGTSATLGITGLQTGDEADYYCGTWDSSLSAGVFGGGTKLTVLGSGGSTITSYNVYYTKLSSSGTEVQLVQSGGGLVQPGRSLRLSCAASGFTFDDYAMHWVRQAPGKGLEWVSGISWNSGSIGYADSVKGRFTISRDNAKNSLYLQMNSLRAEDTALYYCAKEGDSSGWSPDYWGQGTLVTVSSAS
modifications: scFv7
With B1 the “OD490 Well1” value (ERα36; ScFv concentration 0.32 μg/ml) was 0.122, the “OD490 Well2” value (ERα36; ScFv concentration 0.32 μg/ml) was 0.111 and the “OD490 Well1” value (ERα36; ScFv concentration 1.60 μg/ml) was 0.146. The “OD490 Well2” value (ERα36; ScFv concentration 1.60 μg/ml) was 0.155, the “OD490 Well1” value (ERα36; ScFv concentration 8.00 μg/ml) was 0.171 and the “OD490 Well2” value (ERα36; ScFv concentration 8.00 μg/ml) was 0.155. The “OD490 Well1” value (ERα36; ScFv concentration 40.00 μg/ml) was 0.294, the “OD490 Well2” value (ERα36; ScFv concentration 40.00 μg/ml) was 0.311 and the “OD490 Well1” value (ERα36; [3]) was 0.690. For the same molecule, the “OD490 Well2” value (ERα36; [3]) was 0.740, the “Tumor volumes, Day 4 after drug administration” value [1, 4] was 186.11 ± 71.13^a mm^3 and the “Tumor volumes, Day 7 after drug administration” value [1, 4] was 308.85 ± 117.52^b mm^3. The “Tumor volumes, Day 11 after drug administration” value [1, 4] was 1521.45 ± 366.24^b mm^3, the “Tumor volumes, Day 14 after drug administration” value [1, 4] was 2136.49 ± 479.95^b mm^3 and the “Tumor volumes, Day 18 after drug administration” value [1, 4] was 2944.61 ± 526.75^b mm^3. The “Tumor volumes, Day 21 after drug administration” value [1, 4] was 3358.43 ± 445.13^b mm^3, the “relative tumor volume (RTV), Day 4” value [1, 5] was 3.81 ± 1.54^b and the “relative tumor volume (RTV), Day 7” value [1, 5] was 6.45 ± 2.86^b. The “relative tumor volume (RTV), Day 11” value [1, 5] was 31.64 ± 10.24^b, the “relative tumor volume (RTV), Day 14” value [1, 5] was 44.48 ± 13.69^b and the “relative tumor volume (RTV), Day 18” value [1, 5] was 61.54 ± 18.25^b. For the same molecule, the “relative tumor volume (RTV), Day 21” value [1, 5] was 70.27 ± 19.61^b, the “inhibition of tumor growth in tumor-bearing mice (in words)” value ([1]; BCAP-37 nude mice, 5 mg/kg i.v., 6 doses) was “strongest inhibitory activities” and the “Tumor volumes, Before drug administration” value ([1]; baseline, BCAP-37 nude mice, 5 mg/kg i.v. every 3-4 days, 6 doses, mean ± SD) was 50.62 ± 13.32 mm^3. For the same molecule, the “tumor sizes at pathological examination (in words)” value ([1]; excised tumors after 21 days) was “the smallest among the mono-clonal antibody groups”, the “Tumor weight” value ([1]; excised tumors after 21 days, BCAP-37 nude mice, 5 mg/kg i.v., 6 doses, mean ± SD) was 2.860 ± 0.696 g and the “Tumor growth inhibition rate (%)” value ([1]; from average tumor weights after 21 days vs negative control, 5 mg/kg i.v., 6 doses) was 57.97%. The “Body weights of tumor-bearing nude mice, Day 4 after drug administration” value [2, 6] was 20.02 ± 0.51, the “Body weights of tumor-bearing nude mice, Day 7 after drug administration” value [2, 6] was 20.65 ± 0.24 and the “Body weights of tumor-bearing nude mice, Day 11 after drug administration” value [2, 6] was 21.34 ± 0.51. For the same molecule, the “Body weights of tumor-bearing nude mice, Day 14 after drug administration” value [2, 6] was 22.01 ± 0.52, the “Body weights of tumor-bearing nude mice, Day 18 after drug administration” value [2, 6] was 23.15 ± 0.58 and the “Body weights of tumor-bearing nude mice, Day 21 after drug administration” value [2, 6] was 23.52 ± 0.47. For the same molecule, the “body weight when grouped” value ([2]; baseline at the time of grouping) was 19.67 ± 0.67, the “Body weights of tumor-bearing nude mice, Before drug administration” value ([2]; baseline, 5 mg/kg i.v. every 3-4 days, 6 doses) was 19.67 ± 0.67 and the “tumor sizes at pathological examination (in words)” value (implanted tumors) was “significantly smaller than those of the negative group”. For the same molecule, the “tumor volume (VT), relative tumor volume (RVT) and relative tumor growth rate (T/C %) versus negative control group” value (implanted tumors) was “significantly lower”, the tumor inhibition rates (implanted tumors; ScFv-7 0.1 mg/20 g body weight/day, tamoxifen 0.33 mg/20 g body weight/day) was “around 60%” and the “average tumor weights compared with negative group” value (implanted tumors; p-values below 0.01) was “significant difference”.
